Assay results published in patent US20240391954A1, “MC4R AGONIST PEPTIDES” (The Regents of the University of Michigan, priority 2021, published 2024).
Starred links: 1 amine or outer side, 2 acyl side, 3 side chain; linkers in the order of their positions; H or OH if unused. Positions of bridges follow the written chain, without caps; N, C: chain ends. Non-standard residues stand in square brackets, D forms with d. Primed or numbered codes have the meaning given here. dTyr(4-OMe) = O-methyl-D-tyrosine (4-OMe), COc1ccc(C[C@@H](N[*:1])C(=O)[*:2])cc1; dTyr(4-OMe)″ = O-methyl-D-tyrosine, COc1ccc(C[C@@H](N[*:1])C(=O)[*:2])cc1; dDip = N[C@@H](C(=O)O)C(c1ccccc1)c1ccccc1; dPhe(4-Br) = N[C@H](Cc1ccc(Br)cc1)C(=O)O; d2Nal = N[C@H](Cc1ccc2ccccc2c1)C(=O)O; d(αMeF) = C[C@@](N)(Cc1ccccc1)C(=O)O; Cit = NC(=O)NCCC[C@H](N)C(=O)O; Nle = CCCC[C@H](N)C(=O)O; Aib = CC(C)(N)C(=O)O

B1: CTX-1279 (peptide)
peptide: Ac-RC[dA]R[d(αMeF)]R[dW]C-NH2
modifications: disulfide 2-8
SMILES: CC(=O)N[C@@H](CCCNC(=N)N)C(=O)N[C@H]1CSSC[C@@H](C(N)=O)NC(=O)[C@@H](Cc2c[nH]c3ccccc23)NC(=O)[C@H](CCCNC(=N)N)NC(=O)[C@@](C)(Cc2ccccc2)NC(=O)[C@H](CCCNC(=N)N)NC(=O)[C@@H](C)NC1=O
B2: CTX-1282 (peptide)
peptide: Ac-RC[dA]R[dF][dR]WC-NH2
modifications: disulfide 2-8
SMILES: CC(=O)N[C@@H](CCCNC(=N)N)C(=O)N[C@H]1CSSC[C@@H](C(N)=O)NC(=O)[C@H](Cc2c[nH]c3ccccc23)NC(=O)[C@@H](CCCNC(=N)N)NC(=O)[C@@H](Cc2ccccc2)NC(=O)[C@H](CCCNC(=N)N)NC(=O)[C@@H](C)NC1=O
B3: CTX-1283 (peptide)
peptide: Ac-RC[dA]R[dF][dR][dW]C-NH2
modifications: disulfide 2-8
SMILES: CC(=O)N[C@@H](CCCNC(=N)N)C(=O)N[C@H]1CSSC[C@@H](C(N)=O)NC(=O)[C@@H](Cc2c[nH]c3ccccc23)NC(=O)[C@@H](CCCNC(=N)N)NC(=O)[C@@H](Cc2ccccc2)NC(=O)[C@H](CCCNC(=N)N)NC(=O)[C@@H](C)NC1=O
B4: CTX-1614 (peptide)
peptide: Ac-R[Nle]CR[dTyr(4-OMe)″]RWC-NH2
modifications: disulfide 3-8
SMILES: CCCC[C@H](NC(=O)[C@H](CCCNC(=N)N)NC(C)=O)C(=O)N[C@H]1CSSC[C@@H](C(N)=O)NC(=O)[C@H](Cc2c[nH]c3ccccc23)NC(=O)[C@H](CCCNC(=N)N)NC(=O)[C@@H](Cc2ccc(OC)cc2)NC(=O)[C@H](CCCNC(=N)N)NC1=O
B5: CTX-1615 (peptide)
peptide: Ac-R[Nle]CR[dTyr(4-OMe)″]R[dW]C-NH2
modifications: disulfide 3-8
SMILES: CCCC[C@H](NC(=O)[C@H](CCCNC(=N)N)NC(C)=O)C(=O)N[C@H]1CSSC[C@@H](C(N)=O)NC(=O)[C@@H](Cc2c[nH]c3ccccc23)NC(=O)[C@H](CCCNC(=N)N)NC(=O)[C@@H](Cc2ccc(OC)cc2)NC(=O)[C@H](CCCNC(=N)N)NC1=O
B6: CTX-1641 (peptide)
peptide: Ac-CGR[dTyr(4-OMe)]RFC-NH2
modifications: disulfide 1-7
SMILES: COc1ccc(C[C@H]2NC(=O)[C@H](CCCNC(=N)N)NC(=O)CNC(=O)[C@@H](NC(C)=O)CSSC[C@@H](C(N)=O)NC(=O)[C@H](Cc3ccccc3)NC(=O)[C@H](CCCNC(=N)N)NC2=O)cc1
B7: CTX-2203 (peptide)
peptide: Ac-RC[dA]P[d2Nal]RWC-NH2
modifications: disulfide 2-8
SMILES: CC(=O)N[C@@H](CCCNC(=N)N)C(=O)N[C@H]1CSSC[C@@H](C(N)=O)NC(=O)[C@H](Cc2c[nH]c3ccccc23)NC(=O)[C@H](CCCNC(=N)N)NC(=O)[C@@H](Cc2ccc3ccccc3c2)NC(=O)[C@@H]2CCCN2C(=O)[C@@H](C)NC1=O
B8: CTX-2204 (peptide)
peptide: Ac-RC[dA]P[dPhe(4-Br)]RWC-NH2
modifications: disulfide 2-8
SMILES: CC(=O)N[C@@H](CCCNC(=N)N)C(=O)N[C@H]1CSSC[C@@H](C(N)=O)NC(=O)[C@H](Cc2c[nH]c3ccccc23)NC(=O)[C@H](CCCNC(=N)N)NC(=O)[C@@H](Cc2ccc(Br)cc2)NC(=O)[C@@H]2CCCN2C(=O)[C@@H](C)NC1=O

Key:
Assay in all cases: cell-based or functional assay
human MC3R = human MC3R (human, UniProt P41968 1-323)
human MC3R, sequence (P41968 whole entry): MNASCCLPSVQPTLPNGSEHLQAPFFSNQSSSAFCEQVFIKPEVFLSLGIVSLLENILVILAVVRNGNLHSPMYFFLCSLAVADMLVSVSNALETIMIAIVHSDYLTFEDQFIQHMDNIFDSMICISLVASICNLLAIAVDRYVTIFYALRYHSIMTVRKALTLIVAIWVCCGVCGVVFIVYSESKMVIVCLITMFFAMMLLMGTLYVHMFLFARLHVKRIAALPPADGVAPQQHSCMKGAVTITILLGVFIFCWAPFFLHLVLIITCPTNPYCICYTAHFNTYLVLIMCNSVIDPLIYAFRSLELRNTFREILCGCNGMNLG

human MC4R receptor [1] = target: T1, human MC4R receptor (human, UniProt P32245 1-332)
T1 sequence (P32245 whole entry): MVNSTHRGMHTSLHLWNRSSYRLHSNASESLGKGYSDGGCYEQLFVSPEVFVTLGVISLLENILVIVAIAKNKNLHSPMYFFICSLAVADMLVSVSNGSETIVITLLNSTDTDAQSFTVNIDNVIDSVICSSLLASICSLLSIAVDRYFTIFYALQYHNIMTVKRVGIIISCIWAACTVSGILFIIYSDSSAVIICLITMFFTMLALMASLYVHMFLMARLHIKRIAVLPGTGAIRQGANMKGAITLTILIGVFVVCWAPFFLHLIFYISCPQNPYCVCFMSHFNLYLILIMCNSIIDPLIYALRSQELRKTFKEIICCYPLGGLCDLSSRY

human MC4R receptor [2] = target: T1, human MC4R receptor; remark: listed apart in the source

| Binder | % max activation (human MC3R) | cAMP EC50 (human MC3R) | % max activation (human MC4R receptor [1]) | cAMP EC50 (human MC4R receptor [1]) | MC4R selectivity vs MC1R (human MC4R receptor [2]) | MC4R selectivity vs MC3R (human MC4R receptor [2]) |
| --- | --- | --- | --- | --- | --- | --- |
| B1 | 20% | 43 nM | 79% | 72 nM | 0.83 | 0.61 |
| Ac-RC[dA]R[dDip]R[dW]C-NH2 (disulfide 2-8) [CTX-1280] | 2.6% | 541 nM | 4% | 438 nM | 0.1 | 1.24 |
| B2 | 4.2% | 545 nM | 72% | 1420 nM | 0.14 | 0.38 |
| B3 | 7.8% | 719 nM | 55% | 5860 nM | 0.03 | 0.12 |
| Ac-RC[Aib][Cit][dTyr(4-OMe)″]R[dW]C-NH2 (disulfide 2-8) [CTX-1600] | – | > 10000 nM | 58% | 142 nM | > 70 | > 70 |
| B4 | 28% | 3.2 nM | 41% | 1.7 nM | 0.08 | 1.89 |
| B5 | 55% | 27 nM | 68% | 13 nM | 0.26 | 2.14 |
| Ac-CGR[dPhe(4-Br)]RFC-NH2 (disulfide 1-7) [CTX-1640] | 27% | 10 nM | 100% | 3.4 nM | 3.72 | 3.09 |
| B6 | 22% | 52 nM | 104% | 44 nM | 0.28 | 1.18 |
| B7 | 1% | 29 nM | 1.4% | 12 nM | – | 2.45 |
| B8 | 0.2% | 11 nM | 13% | 58 nM | – | 0.19 |
| Ac-RC[dA]R[dPhe(4-Br)]RWC-NH2 (disulfide 2-8) [CTX-2205] | 13% | 18 nM | 88% | 8 nM | 0.2 | 2.12 |
